Key:
[1] = target: T1, LHCP (light-harvesting chlorophyll a/b binding protein), fluorescein-labeled, P07371; test: fluorescence polarisation; details: remark: other sources report otherwise
[2] = target: T1, LHCP (light-harvesting chlorophyll a/b …); test: fluorescence polarisation; details: remark: other sources report otherwise; remark: listed apart in the source

B1: cpSRP43 (mature), O22265 57-373 (natural protein)
chain: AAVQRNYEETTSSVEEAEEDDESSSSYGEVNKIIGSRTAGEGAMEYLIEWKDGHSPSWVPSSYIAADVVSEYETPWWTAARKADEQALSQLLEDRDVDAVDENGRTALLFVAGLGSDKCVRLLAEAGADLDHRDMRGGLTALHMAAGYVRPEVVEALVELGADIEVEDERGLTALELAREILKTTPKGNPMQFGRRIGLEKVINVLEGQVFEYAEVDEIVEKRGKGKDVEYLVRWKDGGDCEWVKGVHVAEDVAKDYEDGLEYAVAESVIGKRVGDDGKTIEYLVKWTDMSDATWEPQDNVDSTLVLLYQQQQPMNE
Binder B1 has a Kd [1] of 138 nM and a Kd [2] of 296 nM.

Source: paper PMC2917185
